From IntAct's records for PubMed 24275654

B1: Tubulin beta-4A chain (Homo sapiens), P04350 (parent)
chain: MREIVHLQAGQCGNQIGAKFWEVISDEHGIDPTGTYHGDSDLQLERINVYYNEATGGNYVPRAVLVDLEPGTMDSVRSGPFGQIFRPDNFVFGQSGAGNNWAKGHYTEGAELVDAVLDVVRKEAESCDCLQGFQLTHSLGGGTGSGMGTLLISKIREEFPDRIMNTFSVVPSPKVSDTVVEPYNATLSVHQLVENTDETYCIDNEALYDICFRTLKLTTPTYGDLNHLVSATMSGVTTCLRFPGQLNADLRKLAVNMVPFPRLHFFMPGFAPLTSRGSQQYRALTVPELTQQMFDAKNMMAACDPRHGRYLTVAAVFRGRMSMKEVDEQMLSVQSKNSSYFVEWIPNNVKTAVCDIPPRGLKMAATFIGNSTAIQELFKRISEQFTAMFRRKAFLHWYTGEGMDEMEFTEAESNMNDLVSEYQQYQDATAEEGEFEEEAEEEVA
B2: Tubulin beta chain (Homo sapiens), P07437 (parent)
chain: MREIVHIQAGQCGNQIGAKFWEVISDEHGIDPTGTYHGDSDLQLDRISVYYNEATGGKYVPRAILVDLEPGTMDSVRSGPFGQIFRPDNFVFGQSGAGNNWAKGHYTEGAELVDSVLDVVRKEAESCDCLQGFQLTHSLGGGTGSGMGTLLISKIREEYPDRIMNTFSVVPSPKVSDTVVEPYNATLSVHQLVENTDETYCIDNEALYDICFRTLKLTTPTYGDLNHLVSATMSGVTTCLRFPGQLNADLRKLAVNMVPFPRLHFFMPGFAPLTSRGSQQYRALTVPELTQQVFDAKNMMAACDPRHGRYLTVAAVFRGRMSMKEVDEQMLNVQNKNSSYFVEWIPNNVKTAVCDIPPRGLKMAVTFIGNSTAIQELFKRISEQFTAMFRRKAFLHWYTGEGMDEMEFTEAESNMNDLVSEYQQYQDATAEEEEDFGEEAEEEA
B3: Tubulin beta-6 chain (Homo sapiens), Q9BUF5 (parent)
chain: MREIVHIQAGQCGNQIGTKFWEVISDEHGIDPAGGYVGDSALQLERINVYYNESSSQKYVPRAALVDLEPGTMDSVRSGPFGQLFRPDNFIFGQTGAGNNWAKGHYTEGAELVDAVLDVVRKECEHCDCLQGFQLTHSLGGGTGSGMGTLLISKIREEFPDRIMNTFSVMPSPKVSDTVVEPYNATLSVHQLVENTDETYCIDNEALYDICFRTLKLTTPTYGDLNHLVSATMSGVTTSLRFPGQLNADLRKLAVNMVPFPRLHFFMPGFAPLTSRGSQQYRALTVPELTQQMFDARNMMAACDPRHGRYLTVATVFRGPMSMKEVDEQMLAIQSKNSSYFVEWIPNNVKVAVCDIPPRGLKMASTFIGNSTAIQELFKRISEQFSAMFRRKAFLHWFTGEGMDEMEFTEAESNMNDLVSEYQQYQDATANDGEEAFEDEEEEIDG

Variants of: B1
Details: with lrrk2_human LRRK2, Q5S007
Chain of lrrk2_human LRRK2, Q5S007 (Q5S007 whole entry): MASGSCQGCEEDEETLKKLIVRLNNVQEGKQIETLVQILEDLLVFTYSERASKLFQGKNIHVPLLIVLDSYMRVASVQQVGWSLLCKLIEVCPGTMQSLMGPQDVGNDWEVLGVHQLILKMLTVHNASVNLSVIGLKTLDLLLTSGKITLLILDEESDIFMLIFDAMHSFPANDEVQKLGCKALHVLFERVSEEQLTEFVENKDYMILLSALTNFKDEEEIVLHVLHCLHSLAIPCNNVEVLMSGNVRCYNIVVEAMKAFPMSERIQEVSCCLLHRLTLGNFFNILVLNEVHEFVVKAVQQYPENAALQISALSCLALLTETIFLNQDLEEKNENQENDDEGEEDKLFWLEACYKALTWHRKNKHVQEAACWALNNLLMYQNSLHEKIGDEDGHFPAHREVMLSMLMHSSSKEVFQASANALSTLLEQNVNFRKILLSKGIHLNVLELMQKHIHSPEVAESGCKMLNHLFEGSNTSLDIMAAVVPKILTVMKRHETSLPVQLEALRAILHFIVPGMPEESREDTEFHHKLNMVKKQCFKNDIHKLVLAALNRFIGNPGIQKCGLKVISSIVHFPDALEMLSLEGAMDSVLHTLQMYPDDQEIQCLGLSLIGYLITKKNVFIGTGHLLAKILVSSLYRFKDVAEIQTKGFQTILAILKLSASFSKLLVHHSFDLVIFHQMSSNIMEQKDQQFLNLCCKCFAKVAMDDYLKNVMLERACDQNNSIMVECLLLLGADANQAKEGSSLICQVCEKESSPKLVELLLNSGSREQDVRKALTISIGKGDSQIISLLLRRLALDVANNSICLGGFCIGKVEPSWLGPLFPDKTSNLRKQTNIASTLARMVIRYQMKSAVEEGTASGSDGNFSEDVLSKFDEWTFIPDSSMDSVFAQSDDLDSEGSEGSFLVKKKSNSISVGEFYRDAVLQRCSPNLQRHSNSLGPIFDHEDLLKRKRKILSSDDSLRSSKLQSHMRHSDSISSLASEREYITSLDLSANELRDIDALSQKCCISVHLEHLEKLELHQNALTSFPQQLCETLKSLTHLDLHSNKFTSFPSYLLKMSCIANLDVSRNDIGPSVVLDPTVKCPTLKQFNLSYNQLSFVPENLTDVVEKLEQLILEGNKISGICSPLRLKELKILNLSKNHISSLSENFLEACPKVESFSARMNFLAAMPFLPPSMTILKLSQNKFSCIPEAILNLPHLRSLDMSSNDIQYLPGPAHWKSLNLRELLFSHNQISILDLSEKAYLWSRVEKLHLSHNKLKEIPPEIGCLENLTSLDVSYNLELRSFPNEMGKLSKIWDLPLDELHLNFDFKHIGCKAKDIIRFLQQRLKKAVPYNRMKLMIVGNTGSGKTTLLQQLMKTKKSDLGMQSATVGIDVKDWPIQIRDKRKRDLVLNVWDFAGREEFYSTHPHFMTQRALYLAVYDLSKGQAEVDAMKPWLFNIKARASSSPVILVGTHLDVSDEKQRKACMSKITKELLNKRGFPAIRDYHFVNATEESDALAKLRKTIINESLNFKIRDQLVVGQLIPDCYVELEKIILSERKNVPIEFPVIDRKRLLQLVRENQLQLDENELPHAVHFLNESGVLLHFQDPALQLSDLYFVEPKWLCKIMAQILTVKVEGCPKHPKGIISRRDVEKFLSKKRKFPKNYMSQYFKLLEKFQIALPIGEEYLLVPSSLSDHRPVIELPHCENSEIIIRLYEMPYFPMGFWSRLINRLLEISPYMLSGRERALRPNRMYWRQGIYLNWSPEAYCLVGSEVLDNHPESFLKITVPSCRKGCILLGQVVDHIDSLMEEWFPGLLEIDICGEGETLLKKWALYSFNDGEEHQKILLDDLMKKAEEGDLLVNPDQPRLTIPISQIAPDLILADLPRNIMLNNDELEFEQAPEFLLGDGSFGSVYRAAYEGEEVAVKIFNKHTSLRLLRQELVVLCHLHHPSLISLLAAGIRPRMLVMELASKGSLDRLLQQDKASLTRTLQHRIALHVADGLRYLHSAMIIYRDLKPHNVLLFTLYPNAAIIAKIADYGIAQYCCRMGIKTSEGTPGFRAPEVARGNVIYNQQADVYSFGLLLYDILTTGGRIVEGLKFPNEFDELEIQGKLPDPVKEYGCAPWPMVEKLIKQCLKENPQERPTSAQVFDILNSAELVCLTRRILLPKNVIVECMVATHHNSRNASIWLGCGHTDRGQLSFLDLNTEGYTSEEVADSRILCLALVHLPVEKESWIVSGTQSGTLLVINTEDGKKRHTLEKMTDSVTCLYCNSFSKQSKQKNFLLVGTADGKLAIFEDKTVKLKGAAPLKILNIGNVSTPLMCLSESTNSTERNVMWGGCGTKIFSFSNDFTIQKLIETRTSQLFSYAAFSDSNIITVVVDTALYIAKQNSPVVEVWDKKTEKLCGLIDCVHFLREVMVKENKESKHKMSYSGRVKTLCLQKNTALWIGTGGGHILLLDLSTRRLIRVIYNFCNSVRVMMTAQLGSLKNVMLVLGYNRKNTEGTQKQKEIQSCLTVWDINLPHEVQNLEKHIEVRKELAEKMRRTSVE

| Variant | effect of a mutation on the interaction |
| --- | --- |
| A364E | disrupting interaction |
| A364D | disrupting interaction |
| A364S | disrupting interaction |

Variants of: B2
Details: with lrrk2_human LRRK2, Q5S007

| Variant | effect of a mutation on the interaction |
| --- | --- |
| A364S | disrupting interaction |
| A364E | disrupting interaction |
| A364D | disrupting interaction |

Variants of: B3
Details: with lrrk2_human LRRK2, Q5S007

| Variant | effect of a mutation on the interaction |
| --- | --- |
| P320R;K362S | disrupting interaction |
| P320R;A364S | disrupting interaction |
